Reference: paper PMC5856483

Target: FITC-Dsn1 560-572 synthetic peptide (S. cerevisiae) (S. cerevisiae)
Assay: fluorescence polarisation

Kd: 12 µM
Substance: S. cerevisiae Spc24 155-213/Spc25 132-221 heterodimer (from UniProt Q04477 155-213; P40014 132-221) (complex)
